Measured values published in patent publication US11273217B2, “Cancer treatment composition combining anti-CD26 antibody and other anticancer agent” (Y's AC Co., Ltd., priority 2015, dated 2022).

Experiments:
[1] = system: CD26-positive malignant mesothelioma cell line JMN; details: mouse, in vivo
Method: NOD/SCID (NOD/LtSz-scid) mice were maintained in a microisolator cage within a specific pathogen-free (SPF) facility and allowed to freely take sterilized diet and sterilized water.
1×10^7 cultured JMN cells were subcutaneously administered to 6- to 8-week-old female NOD/SCID mice. […] The same amount of PBS was administered to the control group. When a tumor became evidently visible, the tumor was excised, and its size was measured with a vernier caliper. The estimated tumor volume was determined by calculation according to the expression: π/6×L×W×W (Tomayko M M et al., Cancer Chemother Pharmacol. (1989) 24: 148-54). The statistical difference among the average tumor volumes of these groups were determined by Fisher's protected least-square differences (PLSD) multiple comparison test. Statistical analysis was conducted using SPSS software (IBM, Armonk, N.Y.).

MESO1 cells = test: Boyden chamber invasion assay, MESO1; format: cell-based; details: cisplatin 0, 3, or 10 μM and YS110 0, 10, or 20 μg/ml; 24 hours
Method: MESO1 cells or H2452 cells (2.5×10^4 cells/well) were inoculated to a Boyden chamber. One hour later, cisplatin (5, 10, or 30 μM) or pemetrexed (1, 10, or 30 μM) was added thereto (n=5), followed by Boyden chamber invasion assay. 24 hours after the cell inoculation, invasive cells were stained with Diff-Quik-staining kit. Significant difference was tested by two-tailed t-test (vs Cont).
(§1) MESO1 cells or H2452 cells (2.5×10^4 cells/well) were inoculated to a Boyden chamber. One hour later, the combination of cisplatin (0, 3, or 10 μM) and pemetrexed (0, 10, or 30 μM) was added thereto (n=5), followed by Boyden chamber invasion assay. 24 hours after the cell inoculation, invasive cells were stained with Diff-Quik-staining kit. Significant difference was tested by two-tailed t-test (vs Cont).
as §1, with “MESO1” for “MESO1 cells or H2452”, “YS110” for “pemetrexed”, “20 μg/ml)” for “30 μM)”, “Cont). Next, the interaction of YS110 with cisplatin-pemetrexed concomitant use was studied. The interaction was analyzed by two-way ANOVA.” for “Cont).”

For “YS110: humanized anti-CD26 antibody designed based on anti-CD26 mouse antibody 14D10; SEQ ID NO: 17 and 18”, the “average body weight of the mice compared among the groups” value [1] was “did not remarkably differ” and the “effect of YS110 on the cell invasion inhibitory action of cisplatin-pemetrexed” value (MESO1 cells) was “potentiated”.
